Data as given in US20080207501A1 (AMYLIN PHARMACEUTICALS, published 2008).
Ends that are not written are not given here.

T1: adrenomedullin receptor (receptor binding assay)
T1 chain 1: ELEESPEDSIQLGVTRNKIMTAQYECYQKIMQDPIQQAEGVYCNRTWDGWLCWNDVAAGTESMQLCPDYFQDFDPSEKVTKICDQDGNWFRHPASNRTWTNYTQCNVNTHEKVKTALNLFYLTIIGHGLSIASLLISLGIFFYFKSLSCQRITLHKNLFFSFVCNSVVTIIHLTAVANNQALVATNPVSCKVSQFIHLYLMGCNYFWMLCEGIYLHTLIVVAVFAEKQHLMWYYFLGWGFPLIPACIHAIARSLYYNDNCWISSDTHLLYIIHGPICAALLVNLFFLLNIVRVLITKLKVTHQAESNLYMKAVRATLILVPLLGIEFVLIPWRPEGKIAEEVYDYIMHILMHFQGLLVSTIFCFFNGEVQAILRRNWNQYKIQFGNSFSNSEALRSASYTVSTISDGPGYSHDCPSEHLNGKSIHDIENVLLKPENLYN
T1 chain 2: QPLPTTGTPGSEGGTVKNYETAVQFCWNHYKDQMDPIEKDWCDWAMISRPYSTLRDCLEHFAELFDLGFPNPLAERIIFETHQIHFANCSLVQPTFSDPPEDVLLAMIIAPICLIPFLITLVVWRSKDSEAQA


How the values were obtained:
[1] = molecular target: calcitonin receptor of CHO cells; assay: cell-based or functional assay
[2] = molecular target: T2, calcitonin receptor (receptor binding assay); assay: calcitonin receptor binding assay, method not described
T2 construct: also called rCalcitonin RBA; CT

[3] = molecular target: T3, CGRP receptor (membranes prepared from SK-N-MC cells) (UniProt Q16602 23-461; O60894 27-148, limits assumed); assay: radioligand displacement, 125I-hCGRP, SK-N-MC cell membranes
T3 construct: whole, on cells; Endogenous receptor in SK-N-MC cell membranes; also called CGRP receptors; CGRP RBA
T3 sequence (O60894 27-148 limits assumed, chain 2 of 2, one chain of several): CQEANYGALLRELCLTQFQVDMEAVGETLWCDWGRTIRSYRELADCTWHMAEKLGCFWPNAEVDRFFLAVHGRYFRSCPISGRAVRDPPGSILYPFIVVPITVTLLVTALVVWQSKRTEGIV
Description: (§1) Solutions were incubated for 60 minutes at 2 C. […] Filters were washed immediately before filtration with 5 ml cold PBS, and immediately after filtration with 15 ml cold PBS. […] Competition curves were generated by measuring binding in the presence of 10⁻¹² to 10⁻⁶ M unlabeled test compound and were analyzed by nonlinear regression using a 4-parameter logistic equation (INPLOT program; […] Software, San Diego, Calif.).

[4] = molecular target: T1, adrenomedullin receptor (receptor …); assay: adrenomedullin receptor binding assay, method not described
[5] = molecular target: amylin receptor (nucleus accumbens membranes prepared from rat brain) (rat, UniProt P32214 25-516); assay: radioligand displacement, 125I-rat amylin, rat nucleus accumbens membranes
amylin receptor (nucleus accumbens membranes prepared from rat brain), sequence (P32214 25-516): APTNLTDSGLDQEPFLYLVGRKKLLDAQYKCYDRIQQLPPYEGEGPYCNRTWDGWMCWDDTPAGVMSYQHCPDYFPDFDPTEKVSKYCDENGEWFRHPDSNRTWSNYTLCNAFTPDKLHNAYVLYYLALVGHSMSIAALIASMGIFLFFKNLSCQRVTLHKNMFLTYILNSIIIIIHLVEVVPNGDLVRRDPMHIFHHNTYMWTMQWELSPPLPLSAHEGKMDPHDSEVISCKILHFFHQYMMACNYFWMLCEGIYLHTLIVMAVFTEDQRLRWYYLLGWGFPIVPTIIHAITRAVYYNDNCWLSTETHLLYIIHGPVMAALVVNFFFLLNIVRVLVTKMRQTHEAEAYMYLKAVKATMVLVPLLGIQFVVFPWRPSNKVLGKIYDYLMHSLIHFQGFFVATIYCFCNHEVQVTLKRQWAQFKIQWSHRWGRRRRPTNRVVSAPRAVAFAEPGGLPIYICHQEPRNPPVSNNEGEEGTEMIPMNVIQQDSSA
Description: Male Sprague-Dawley® rats (200-250) grams were sacrificed by decapitation. Brains were removed and place in cold phosphate-buffered saline (PBS). From the ventral surface, cuts were made rostral to the hypothalamus, bounded laterally by the olfactory tracts and extending at a 45° angle medially from these tracts. This basal forebrain tissue, containing the nucleus accumbens and surrounding regions, was weighed and homogenized in ice-cold 20 mM HEPES buffer (20 mM HEPES acid, pH adjusted to 7.4 with NaOH at 23° C.). Membranes were washed three times in fresh buffer by centrifugation for 15 minutes at 48,000×g. The final membrane pellet was resuspended in 20 mM HEPES buffer containing 0.2 mM phenylmethylsulfonyl fluoride (PMSF).
as §1

| Binder | EC50, cAMP (AlphaScreen), CHO cells, Average [1] [nM] | EC50, cAMP (AlphaScreen), CHO cells, Experiment 1 [1] [nM] | EC50, cAMP (AlphaScreen), CHO cells, Experiment 2 [1] [nM] | EC50, cAMP (AlphaScreen), CHO cells, Experiment 3 [1] [nM] | IC50 [2] [nM] | IC50 [3] [nM] | IC50 [4] [nM] | IC50 [5] [nM] |
| --- | --- | --- | --- | --- | --- | --- | --- | --- |
| CGNLSTCMLGTYTQDFNKFHTFPQTAIGVGAP-NH2 (ends and bridges not checked) [Human Calcitonin] | 0.097 | 0.077 | – | 0.075 | – | – | – | – |
| VGCVLGTCQVQNLSHRLWQLMGPAGRQDSAPVDPSSPHSY-NH2 (not fully specified; ends and bridges not checked) [Human AFP-6 [8-47]] | – | – | – | – | 24 | – | 6.4 | 12 |
| VGCVLGTCQVQNLSHRLWQLMGPAGRQDSAPVEPSSPHSY-NH2 (ends and bridges not checked) [AFP-6 analog SEQ ID NO: 35] | – | – | – | – | 153 | 4.7 | 37 | 17 |
| GCNTATCQVQNLSHRLWQLRQDSAPVDPSSPHSY-NH2 (ends and bridges not checked) [AFP-6 analog SEQ ID NO: 31] | – | – | – | – | 51 | 18 | 1000 | 12 |
| GCVLGTCQVQNLSHRLWQLMGPAGRQDSAPVDPSSPHSY-NH2 (ends and bridges not checked) [AFP-6 analog SEQ ID NO: 11] | – | – | – | – | 27 | 0.93 | 11 | 7.7 |
| GMVLGTMQVQNLSHRLWQLMGPAGRQDSAPVDPSSPHSY-NH2 [AFP-6 analog SEQ ID NO: 26] | – | – | – | – | – | 26 | 37 | 48 |
| TQAQLLRVGCVLGTCQVQNLSHRLWQLRQDSAPVDPSSPHSY-NH2 (ends and bridges not checked) [AFP-6 analog SEQ ID NO: 16] | – | – | – | – | 22 | 1.5 | 1000 | 21 |
| TQAQLLRVGCVLGTCQVQNLSHRLWQLDSAPVDPSSPHSY-NH2 (ends and bridges not checked) [AFP-6 analog SEQ ID NO: 17] | – | – | – | – | – | 10.5 | 304 | 209 |
| VGCVLGTCQVQNLSHRLWQLRQDSAPVDPSSPHSY-NH2 (ends and bridges not checked) [AFP-6 analog SEQ ID NO: 18] | – | – | – | – | 24 | 3.6 | 1000 | 18 |
| VGMVLGTMQVQNLSHRLWQLRQDSAPVDPSSPHSY-NH2 [AFP-6 analog SEQ ID NO: 27] | – | – | – | – | – | – | 1000 | – |
| GCSNLSTCQVQNLSHRLWQLRQDSAPVEPSSPHSY-NH2 (ends and bridges not checked) [AFP-6 analog SEQ ID NO: 38] | – | – | – | – | 17 | 208 | – | 9.9 |

The remaining lines, values ahead:

| EC50, cAMP (AlphaScreen), CHO cells, Average [1] [nM] | EC50, cAMP (AlphaScreen), CHO cells, Experiment 1 [1] [nM] | EC50, cAMP (AlphaScreen), CHO cells, Experiment 2 [1] [nM] | EC50, cAMP (AlphaScreen), CHO cells, Experiment 3 [1] [nM] | IC50 [2] [nM] | IC50 [3] [nM] | IC50 [4] [nM] | IC50 [5] [nM] | Binder |
| --- | --- | --- | --- | --- | --- | --- | --- | --- |
| 24 | 21.6 | 30.9 | 19.6 | – | – | – | – | KCNTATCATQRLANFLVRSSNNLGPVLPPTNVGSNTY (peptide, UniProt P12969 38-74, looked up) [rat amylin] |
| – | – | – | – | 9 | 111 | 1000 | 7.5 | VGCGNLSTCQVQNLSHRLWQLRQDSAPVDPSSPHSY-NH2 (ends and bridges not checked) [AFP-6 analog SEQ ID NO: 29] |
| – | – | – | – | – | – | 1000 | – | GCVLGTCQVQNLSHRLWQLRQESAPVEPSSPHSY-NH2 (ends and bridges not checked) [AFP-6 analog SEQ ID NO: 40] |
| – | – | – | – | – | – | 59 | – | VQNLSHRLWQLMGPAGRQDSAPVDPSSPHSY-NH2 [AFP-6 analog SEQ ID NO: 14] |
| – | – | – | – | 17 | 8.5 | 47 | 8.3 | TQAQLLRVGCNTATCQVQNLSHRLWQLMGPAGRQDSAPVDPSSPHSY-NH2 (ends and bridges not checked) [AFP-6 analog SEQ ID NO: 21] |
| – | – | – | – | 1000 | 2.3 | 7.1 | 16 | TQAQLLRVGCVLGTCQVQNLSHRLWQLMGPAGRQESAPVEPSSPHSY-NH2 (ends and bridges not checked) [AFP-6 analog SEQ ID NO: 32] |
| – | – | – | – | – | 80 | 120 | 139 | TQAQLLRVGMVLGTMQVQNLSHRLWQLMGPAGRQDSAPVDPSSPHSY-NH2 [AFP-6 analog SEQ ID NO: 25] |
| – | – | – | – | 55 | 1.4 | 7.1 | 5.1 | RVGCVLGTCQVQNLSHRLWQLMGPAGRQDSAPVDPSSPHSY-NH2 (ends and bridges not checked) [AFP-6 analog SEQ ID NO: 10] |
| – | – | – | – | 247 | 12.7 | 1000 | 29 | CVLGTCQVQNLSHRLWQLRQESAPVEPSSPHSY-NH2 (ends and bridges not checked) [AFP-6 analog SEQ ID NO: 19] |
| – | – | – | – | 198 | 2.2 | 18 | 9.8 | CVLGTCQVQNLSHRLWQLMGPAGRQDSAPVDPSSPHSY-NH2 (ends and bridges not checked) [AFP-6 analog SEQ ID NO: 12] |
| – | – | – | – | 121 | 130 | 1000 | 39 | GCNTATCQVQNLSHRLWQLRQDSAPVEPSSPHSY-NH2 (ends and bridges not checked) [AFP-6 analog SEQ ID NO: 37] |
| – | – | – | – | 128 | 37 | 1000 | 19 | VCNTATCQVQNLSHRLWQLRQDSAPVDPSSPHSY-NH2 (ends and bridges not checked) [AFP-6 analog SEQ ID NO: 30] |
| – | – | – | – | 16 | 25 | 36 | 1.9 | TQAQLLRVGCSNLSTCQVQNLSHRLWQLMGPAGRQDSAPVDPSSPHSY-NH2 (ends and bridges not checked) [AFP-6 analog SEQ ID NO: 20] |
| – | – | – | – | 198 | 14 | 1000 | 39 | VGCVLGTCQVQNLSHRLWQLRQDSAPVEPSSPHSY-NH2 (ends and bridges not checked) [AFP-6 analog SEQ ID NO: 36] |
| – | – | – | – | 31 | – | 1000 | 14 | GCGNLSTCQVQNLSHRLWQLRQDSAPVEPSSPHSY-NH2 (ends and bridges not checked) [AFP-6 analog SEQ ID NO: 39] |
